From US20110269161

How the values were obtained:
[1] = molecular target: T1, peptide C11 (NKRRGSVPILPFR), derived from erythrocyte membrane protein band 4.2 (Ser247)
T1 chain: NKRRGSVPILPFR

[2] = molecular target: T2, peptide F6 (RIRTQSFSLQPFR), derived from nitric-oxide synthase, endothelial (Ser1176)
T2 chain: RIRTQSFSLQPFR

[3] = molecular target: T3, peptide G5 (SKRRNSEFEIPFR), derived from tryptophan 5-hydroxylase 1 (Ser58)
T3 chain: SKRRNSEFEIPFR

[4] = molecular target: T4, peptide C6 (TKRSGSVYEPPFR), derived from phosphorylase b kinase regulatory subunit beta (Ser26)
T4 chain: TKRSGSVYEPPFR

[5] = molecular target: T5, peptide E11 (RKRLISSVEDPFR), derived from tuberin (Ser1798)
T5 chain: RKRLISSVEDPFR

[6] = molecular target: T6, peptide B6 (PKRKVSSAEGPFR), derived from nonhistone chromosomal protein HMG-14 (Ser6)
T6 chain: PKRKVSSAEGPFR

B1: 90 kDa ribosomal S6 kinases 1 (RSK1, 1-735), purified human active kinase (protein)
chain: MPLAQLKEPWPLMELVPLDPENGQTSGEEAGLQPSKDEGVLKEISITHHVKAGSEKADPSHFELLKVLGQGSFGKVFLVRKVTRPDSGHLYAMKVLKKATLKVRDRVRTKMERDILADVNHPFVVKLHYAFQTEGKLYLILDFLRGGDLFTRLSKEVMFTEEDVKFYLAELALGLDHLHSLGIIYRDLKPENILLDEEGHIKLTDFGLSKEAIDHEKKAYSFCGTVEYMAPEVVNRQGHSHSADWWSYGVLMFEMLTGSLPFQGKDRKETMTLILKAKLGMPQFLSTEAQSLLRALFKRNPANRLGSGPDGAEEIKRHVFYSTIDWNKLYRREIKPPFKPAVAQPDDTFYFDTEFTSRTPKDSPGIPPSAGAHQLFRGFSFVATGLMEDDGKPRAPQAPLHSVVQQLHGKNLVFSDGYVVKETIGVGSYSECKRCVHKATNMEYAVKVIDKSKRDPSEEIEILLRYGQHPNIITLKDVYDDGKHVYLVTELMRGGELLDKILRQKFFSEREASFVLHTIGKTVEYLHSQGVVHRDLKPSNILYVDESGNPECLRICDFGFAKQLRAENGLLMTPCYTANFVAPEVLKRQGYDEGCDIWSLGILLYTMLAGYTPFANGPSDTPEEILTRIGSGKFTLSGGNWNTVSETAKDLVSKMLHVDPHQRLTAKQVLQHPWVTQKDKLPQSQLSHQDLQLVKGAMAATYSALNSSKPTPQLKPIESSILAQRRVRKLPSTTL
For B1, the “in vitro peptide phosphorylation by recombinant kinase (KAYAK, LC-MS)” value (shortened to “in vitro peptide phosphorylation”) [1] was “recombinant RSK1 could robustly phosphorylate peptides B6, C6, C11 and G5 in vitro”, the “peptide phosphorylation, 100 µM peptide reacted individually” value [2] was “both RSK and Akt demonstrated strong phosphorylation” and the “in vitro peptide phosphorylation” value [3] was “recombinant RSK1 could robustly phosphorylate peptides B6, C6, C11 and G5 in vitro”. For the same protein, the “in vitro peptide phosphorylation” value [4] was “recombinant RSK1 could robustly phosphorylate peptides B6, C6, C11 and G5 in vitro”, the “phosphorylation by purified kinase (KAYAK profiling of 90 peptides)” value [5] was “is preferably phosphorylated by purified RSK1 enzyme” and the “in vitro peptide phosphorylation” value [6] was “recombinant RSK1 could robustly phosphorylate peptides B6, C6, C11 and G5 in vitro”.
